# According to the RNAGym collection of RNA variant scans (doi:10.1073/pnas.2313332121):
# B1: TPR t1 (parent)
# chain: GACCAAUCUGCCCUCAGAGCUCGAGAACAUCUUCGGAUGCAGAGGAGGCAGGCUUCGGUGGCGCGAUAGCGCCAACGUCCUCAACCUCCAAUGCAUCCCACCACAUGAUGAUGCCUGAAGAGCCUUGGUUUUUUG
# Variants of: B1
# Experiment: polymerase ribozyme fitness, log enrichment relative to wild type (log ratio); higher = more active; in vitro selection for triplet polymerase activity
# Procedure, shortened: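 Mutant libraries of both subunits of a heterodimeric triplet polymerase ribozyme were PCR-built, transcribed, and selected once in triplicate, with frozen incubation at −7 °C and capture of gel-excised extended constructs on streptavidin beads before RT-PCR. Illumina sequencing of input and output libraries was filtered to genotypes with ≥10 input reads and ≥1 read per output. Fitness is the logarithm of genotype enrichment over wild-type enrichment, using inverse-variance-weighted replicate averages. The logarithm is base 2.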
row,Variant,polymerase ribozyme fitness (log ratio)
1,GACCAAUCUGCCCUCAGAGCUCGAGAACAUCUUCGGAUGCAGAGGAGACAGGCUUCGGUGGCGCGAUAGCGCCAACGUCCUCAACCUCCAAUGCAUCCCACCACAUGAUGAUGCCUGAAGAGCUUUGGUUUUGUG [G48A C124U U133G],0.41
2,GACCAAUCUGCCCUCAGAGCUCGAGAACAUCUUCGGAUGCAGAGGAGACAGGCUUCGGUGGCGCGAUAGCGCCAACGUCCUCAACCUCCAAUGCAUCCCAUCACAUGAUGAUGCCUCAAGAGCCUUGGCUUUUUG [G48A C101U G117C U129C],-6.15
3,GACCAAUCUGCCCUCAGAGCUCGAGAACAUCUUCGGAUGCAGAGGAGACAGGCUUCGGUGGCGCGAUAGCGCCAACGUCCUCAACGUCCAAUGCAUCCCACCACAUGAUGAUGCCUGCAGAGCCUUGGUUUUUUG [G48A C86G A118C],-3.12
4,GACCAAUCUGCCCUCAGAGCUCGAGAACAUCUUCGGAUGCAGAGGAGACAGGCUUCGGUGGCGCGAUAGCGGCAACAAACUCAACCUCCAAUGCAUCCCACCACAUGAUGAUGCCUGAAAAGCCUUGGUAUUUUG [G48A C72G G77A U78A C79A G120A U130A],-2.79
5,GACCAAUCUGCCCUCAGAGCUCGAGAACAUCUUCGGAUGCAGAGGAGACAGGCUUCGGUGGCGCGAUAGCGUCAACGUCCUCAACCUCCAAUGCAUCCCACCACAUGAUGAUGCCUGAUGAGCCUUGGUUUUUUG [G48A C72U A119U],-0.826
6,GACCAAUCUGCCCUCAGAGCUCGAGAACAUCUUCGGAUGCAGAGGAGACAGGCUUCGGUGGCGCGAUAGCGGCAACGUCCUCAACCUCCAAUGCAUCCCACCACAUGAUGAUGCCUGAAGAGCUUUGGUUUUUUG [G48A C72G C124U],0.723
7,GACCAAUCUGCCCUCAGAGCUCGAGAACAUCUUCGGAUGCAGAGGAGACAGGCUUCGGUGGCGCGAUAGCGUCAACCUCCUGAACCUCCACUGCAUCCCACCACAUGAUCAUGCCUGAAGAGCCUUCGUUUUUUG [G48A C72U G77C C82G A91C G110C G127C],-6.25
8,GACCAAUCUGCCCUCAGAGCUCGAGAACAUCUUCGGAUGCAGAGGAGACAGGCUUCGGUGGAGCGAUAUCGCCAACGUCCUCAACCUCCAAUGCAUCCCACCACAUGAUGAUGCCUGAAGAGCCUUGGUUUUUUG [G48A C62A G69U],-5.25
9,GACCAAUCUGCCCUCAGAGCUCGAGAACAUCUUCGGAUGCAGAGGAGACAGGCUUCGGUGGAGCGAUAGCGCCAACGUCCACAACCUCCAAUGCAUCCCACCACAUGAUGAUGCCUGAAGAGCCUUGGUUUUUUG [G48A C62A U81A],-3.27
10,GACCAAUCUGCCCUCAGAGCUCGAGAACAUCUUCGGAUGCAGAGGAGACAGGCUUCCGUGGCGCGAUAGCGCCAACGUCCUCAACCUCCAAUGCAUCCCACCACAUGAUGAUGCGUGAAGAACCUUGGUUUUUUG [G48A G57C C115G G122A],-1.91
11,GACCAAUCUGCCCUCAGAGCUCGAGAACAUCUUCGGAUGCAGAGGAGACAUGCUUCGGUGGCGCGAUAGCGCCAACGUCCUCAACCUCCAAUGCAUCCCACCACAUGAUGAUGCCUGAAGAGCCUUGGUUUUUUG [G48A G51U],-2.61
12,GACCAAUCUGCCCUCAGAGCUCGAGAACAUCUUCGGAUGCAGAGGAGACAGGCUUCGGUGGCGCGAUAGCGCCAACGUCCUCAACCUCCAAUGCAUCCCACCACAUGAUGAUGCCUGAAGAGACUUGGUUUUUUA [G48A C123A G135A],0.126
13,GACCAAUCUGCCCUCAGAGCUCGAGAACAUCUUCGGAUGCAGAGGAGACAGGCUUCGGUGGCGGGAUAGCGCCAACGUCCACAACCUCAAAUGCAUCCCACCACAUGAUGAUGCCUGAAGAGCCUUGGUUUUUUG [G48A C64G U81A C89A],-7.34
14,GACCAAUCUGCCCUCAGAGCUCGAGAACAUCUUCGGAUGCAGAGGAGACAGGCUUCGGUGGCGCGAUAGCGCUAACGUCCUUAACCUCCAAUUCAUCCCACCACAUGAUGAUGCCUGAAGAGCCUUGGUUUUUUG [G48A C73U C82U G93U],-1.54
15,GACCAAUCUGCCCUCAGAGCUCGAGAACAUCUUCGGAUGCAGAGGAGACAGGCUUUGGCGGCGCGAUAGCGCCAACGUCCUCAACAUCCAAUGAAUCCCACCACAUGAUGCUGCCUGAAGAGCCUUGGUUUUUUG [G48A C56U U59C C86A C94A A111C],-5.39
16,GACCAAUCUGCCCUCAGAGCUCGAGAACAUCUUCGGAUGCAGAGGAGACAGGCUUCGGUGGCGCGAUAGCGCCAACGUCCUCAACCUCCAAUGCAUCCCACCACAUGAUGAUGCAUGAAGAGCCUUGGUUUUUUG [G48A C115A],-1.47
17,GACCAAUCUGCCCUCAGAGCUCGAGAACAUCUUCGGAUGCAGAGGAGACAGGCUUCGGUGGCGCGAUAGCGCCAACGUCCUCAACCUCCAAUGCAUCCCACCACAUGAUGAUGCUUGAAGAGCCUUGGUUUUUUG [G48A C115U],-1.61
18,GACCAAUCUGCCCUCAGAGCUCGAGAACAUCUUCGGAUGCAGAGGAGACAGGCUUCGGUGGCGCGAUAGCGCCAACGUCCUCAACCUCCAAUGCAUCCCACCACAUGAUGAUGCCUGAAGAGACUUGGUUUUUUG [G48A C123A],0.577
19,GACCAAUCUGCCCUCAGAGCUCGAGAACAUCUUCGGAUGCAGAGGAGACAGGCUUCGGUGGCGCGAUAGCGCCAACGUCCUCAACCUCCAAUGCAUACCACCACAUGAUGAUGCCUGAAGAGCCUUGGUUUUUUG [G48A C97A],-5.22
20,GACCAAUCUGCCCUCAGAGCUCGAGAACAUCUUCGGAUGCAGAGGAGACAGGCUUAGGUGGCGCGAUAGCGCCAACGUCCUCAACCUCCAAUGCAUCCCACCACAUGAUGAUUCCUGAAGAGCCUUGGUUUUUUG [G48A C56A G113U],-4.64
21,GACCAAUCUGCCCUCAGAGCUCGAGAACAUCUUCGGAUGCAGAGGAGACAGGCUUCGGUGGCGCGAUAGCGUCAACGUCCUCAACCUCCAAUGCAUCCCAGCACAUGAUGAUGCCUGAAGAGCCUUGGUUUUAUG [G48A C72U C101G U133A],-2.79
